Literature values as cited in PMC4340704.

Molecular target: Cys106 (UniProt position 106, LIAAICAGPTA)
Details: reduced Cys106 thiol/thiolate implied; otherwise not stated

**Q.** With “DJ-1 (Parkinson disease protein 7) (Homo sapiens)” as the substance, how does the pKa read?
**A.** 5.4
